Experiment in all cases: dried collagen assay
The target of assay [1] is T1, human collagen type I (acid soluble, extracted from placenta, Sigma C7774) (human, UniProt P02452 162-1218; P08123 80-1119).
T1 construct: gelled and dried as a fibril film in the assay; also called dried human collagen; h-Collagen

Assay [2] concerns the target T2, rat collagen (acid soluble, type I, rat tail, Upstate 08-115) (rat, UniProt P02454 152-1207; P02466 86-1125).
T2 construct: also called dried rat collagen; insoluble rat collagen

Assay [3] addresses T1, human collagen type I (acid soluble, …). This is another data set of the same source.
Assay [4] has as its target T2, rat collagen (acid soluble, type I, rat …). This is another data set of the same source.
For assay [5], the target named is T1, human collagen type I (acid soluble, …). The source holds these as a separate data set.
Assay [6] concerns the target T2, rat collagen (acid soluble, type I, rat …). The source holds these as a separate data set.
For assay [7], the target named is T1, human collagen type I (acid soluble, …). The procedure: (§1) An additional 90 μL is reserved in a HPLC glass vial as a measure of the total concentration.
This is another data set of the same source.

For assay [8], the target named is T2, rat collagen (acid soluble, type I, rat …). The procedure:
as §1
This is another data set of the same source.

The target in assay [9] is T1, human collagen type I (acid soluble, …). This is another data set of the same source.
Assay [10] deals with T2, rat collagen (acid soluble, type I, rat …). This is another data set of the same source.

Like-named read-outs stand apart in the source and are kept apart here. Bridge positions count the residues as written; N and C are the ends. Square brackets hold non-standard residues; d marks the D form. Primed or numbered codes have the meaning given here. Side chains are listed from the residue outwards. Ends that are not written are not given here. * marks the point of attachment. Bip = N[C@@H](Cc1ccc(-c2ccccc2)cc1)C(=O)O; Gd^T = not defined here; Gd^T″ = GdDTPA-thiourea; Cbz = O=C(OCc1ccccc1)*; Dap = NC[C@H](N)C(=O)O

T1 sequence (P02452 162-1218 limits assumed, chain 1 of 2): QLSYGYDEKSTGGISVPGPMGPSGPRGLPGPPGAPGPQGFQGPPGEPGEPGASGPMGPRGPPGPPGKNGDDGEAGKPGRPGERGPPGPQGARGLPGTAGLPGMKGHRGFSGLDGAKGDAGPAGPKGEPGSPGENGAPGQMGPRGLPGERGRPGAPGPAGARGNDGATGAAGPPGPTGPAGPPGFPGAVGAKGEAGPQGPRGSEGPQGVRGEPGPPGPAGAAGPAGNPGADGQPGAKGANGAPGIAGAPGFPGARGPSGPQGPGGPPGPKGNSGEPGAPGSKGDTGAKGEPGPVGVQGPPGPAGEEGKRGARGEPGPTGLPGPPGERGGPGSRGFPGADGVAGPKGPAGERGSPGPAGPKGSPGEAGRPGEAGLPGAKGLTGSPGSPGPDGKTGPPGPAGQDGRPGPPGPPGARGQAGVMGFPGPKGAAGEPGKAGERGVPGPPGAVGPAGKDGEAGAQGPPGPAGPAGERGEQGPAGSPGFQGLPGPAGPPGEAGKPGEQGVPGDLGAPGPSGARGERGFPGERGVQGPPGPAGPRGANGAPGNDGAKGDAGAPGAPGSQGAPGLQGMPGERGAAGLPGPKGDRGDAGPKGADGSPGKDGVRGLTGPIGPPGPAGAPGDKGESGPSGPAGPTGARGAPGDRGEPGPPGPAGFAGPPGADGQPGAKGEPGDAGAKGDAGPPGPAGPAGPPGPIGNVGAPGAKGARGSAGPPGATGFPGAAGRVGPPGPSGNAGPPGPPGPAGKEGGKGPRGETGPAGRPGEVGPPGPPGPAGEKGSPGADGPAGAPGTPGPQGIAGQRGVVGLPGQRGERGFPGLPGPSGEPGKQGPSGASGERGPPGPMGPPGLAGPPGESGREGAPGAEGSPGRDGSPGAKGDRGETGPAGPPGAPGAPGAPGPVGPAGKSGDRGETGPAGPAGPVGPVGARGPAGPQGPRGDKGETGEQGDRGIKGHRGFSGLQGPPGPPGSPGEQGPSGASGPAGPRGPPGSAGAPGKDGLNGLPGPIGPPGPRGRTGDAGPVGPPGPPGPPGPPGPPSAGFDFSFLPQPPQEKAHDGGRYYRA
T1 sequence (P08123 80-1119 limits assumed, chain 2 of 2): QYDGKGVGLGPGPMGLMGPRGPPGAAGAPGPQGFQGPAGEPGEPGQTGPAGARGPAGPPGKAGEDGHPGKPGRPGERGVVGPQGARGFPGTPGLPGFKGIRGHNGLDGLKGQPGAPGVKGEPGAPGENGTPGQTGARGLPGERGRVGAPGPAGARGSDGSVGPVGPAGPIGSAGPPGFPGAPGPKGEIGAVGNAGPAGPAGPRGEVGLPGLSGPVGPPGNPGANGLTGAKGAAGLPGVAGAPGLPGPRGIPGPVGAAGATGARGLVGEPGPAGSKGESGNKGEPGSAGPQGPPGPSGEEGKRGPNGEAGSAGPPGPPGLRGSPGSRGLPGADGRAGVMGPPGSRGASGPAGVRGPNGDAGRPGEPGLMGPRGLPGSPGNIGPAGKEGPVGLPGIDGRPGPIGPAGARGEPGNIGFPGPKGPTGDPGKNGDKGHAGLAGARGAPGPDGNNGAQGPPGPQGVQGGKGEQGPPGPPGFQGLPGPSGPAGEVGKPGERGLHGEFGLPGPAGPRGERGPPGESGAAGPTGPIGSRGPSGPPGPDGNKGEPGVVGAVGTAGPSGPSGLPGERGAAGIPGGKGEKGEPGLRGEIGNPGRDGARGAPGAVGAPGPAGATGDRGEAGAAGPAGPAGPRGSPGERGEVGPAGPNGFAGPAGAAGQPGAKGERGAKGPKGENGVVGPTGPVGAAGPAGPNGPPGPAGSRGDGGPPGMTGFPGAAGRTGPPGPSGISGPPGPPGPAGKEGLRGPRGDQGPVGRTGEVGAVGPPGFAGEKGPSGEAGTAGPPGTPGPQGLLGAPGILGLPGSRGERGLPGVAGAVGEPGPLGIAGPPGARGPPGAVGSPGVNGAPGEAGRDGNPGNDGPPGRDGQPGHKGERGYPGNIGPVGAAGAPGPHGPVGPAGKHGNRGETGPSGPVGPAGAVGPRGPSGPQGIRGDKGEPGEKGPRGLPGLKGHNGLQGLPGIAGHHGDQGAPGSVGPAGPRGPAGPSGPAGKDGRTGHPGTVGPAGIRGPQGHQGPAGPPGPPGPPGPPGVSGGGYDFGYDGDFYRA
T2 sequence (P02454 152-1207 limits assumed, chain 1 of 2): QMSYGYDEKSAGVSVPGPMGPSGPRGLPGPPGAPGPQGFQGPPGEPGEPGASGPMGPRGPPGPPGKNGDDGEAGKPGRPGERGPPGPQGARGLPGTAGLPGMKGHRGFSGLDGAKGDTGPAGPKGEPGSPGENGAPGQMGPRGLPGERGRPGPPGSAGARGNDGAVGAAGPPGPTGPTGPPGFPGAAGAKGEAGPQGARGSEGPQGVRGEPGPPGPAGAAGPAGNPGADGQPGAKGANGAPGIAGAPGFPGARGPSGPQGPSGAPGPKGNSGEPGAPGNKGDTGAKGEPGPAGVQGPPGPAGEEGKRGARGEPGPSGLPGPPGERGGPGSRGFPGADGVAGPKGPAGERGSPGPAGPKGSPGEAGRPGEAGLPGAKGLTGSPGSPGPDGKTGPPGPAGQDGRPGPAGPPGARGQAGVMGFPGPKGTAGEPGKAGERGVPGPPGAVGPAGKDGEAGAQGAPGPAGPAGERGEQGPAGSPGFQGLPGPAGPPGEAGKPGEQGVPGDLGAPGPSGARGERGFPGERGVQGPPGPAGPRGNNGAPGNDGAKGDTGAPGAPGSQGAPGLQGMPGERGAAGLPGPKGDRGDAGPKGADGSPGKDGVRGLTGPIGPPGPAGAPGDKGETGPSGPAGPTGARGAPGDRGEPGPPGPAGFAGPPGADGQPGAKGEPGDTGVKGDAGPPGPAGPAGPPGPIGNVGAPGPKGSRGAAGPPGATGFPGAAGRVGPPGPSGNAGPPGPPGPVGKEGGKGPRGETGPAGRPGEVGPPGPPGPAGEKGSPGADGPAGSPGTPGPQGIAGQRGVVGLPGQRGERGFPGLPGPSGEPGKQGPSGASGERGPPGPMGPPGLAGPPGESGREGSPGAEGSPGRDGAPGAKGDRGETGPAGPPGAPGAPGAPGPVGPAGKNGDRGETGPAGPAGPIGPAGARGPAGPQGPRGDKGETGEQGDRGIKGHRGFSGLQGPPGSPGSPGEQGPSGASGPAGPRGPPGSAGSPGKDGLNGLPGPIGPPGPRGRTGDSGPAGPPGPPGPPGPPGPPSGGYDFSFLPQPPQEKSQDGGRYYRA
T2 sequence (P02466 86-1125 limits assumed, chain 2 of 2): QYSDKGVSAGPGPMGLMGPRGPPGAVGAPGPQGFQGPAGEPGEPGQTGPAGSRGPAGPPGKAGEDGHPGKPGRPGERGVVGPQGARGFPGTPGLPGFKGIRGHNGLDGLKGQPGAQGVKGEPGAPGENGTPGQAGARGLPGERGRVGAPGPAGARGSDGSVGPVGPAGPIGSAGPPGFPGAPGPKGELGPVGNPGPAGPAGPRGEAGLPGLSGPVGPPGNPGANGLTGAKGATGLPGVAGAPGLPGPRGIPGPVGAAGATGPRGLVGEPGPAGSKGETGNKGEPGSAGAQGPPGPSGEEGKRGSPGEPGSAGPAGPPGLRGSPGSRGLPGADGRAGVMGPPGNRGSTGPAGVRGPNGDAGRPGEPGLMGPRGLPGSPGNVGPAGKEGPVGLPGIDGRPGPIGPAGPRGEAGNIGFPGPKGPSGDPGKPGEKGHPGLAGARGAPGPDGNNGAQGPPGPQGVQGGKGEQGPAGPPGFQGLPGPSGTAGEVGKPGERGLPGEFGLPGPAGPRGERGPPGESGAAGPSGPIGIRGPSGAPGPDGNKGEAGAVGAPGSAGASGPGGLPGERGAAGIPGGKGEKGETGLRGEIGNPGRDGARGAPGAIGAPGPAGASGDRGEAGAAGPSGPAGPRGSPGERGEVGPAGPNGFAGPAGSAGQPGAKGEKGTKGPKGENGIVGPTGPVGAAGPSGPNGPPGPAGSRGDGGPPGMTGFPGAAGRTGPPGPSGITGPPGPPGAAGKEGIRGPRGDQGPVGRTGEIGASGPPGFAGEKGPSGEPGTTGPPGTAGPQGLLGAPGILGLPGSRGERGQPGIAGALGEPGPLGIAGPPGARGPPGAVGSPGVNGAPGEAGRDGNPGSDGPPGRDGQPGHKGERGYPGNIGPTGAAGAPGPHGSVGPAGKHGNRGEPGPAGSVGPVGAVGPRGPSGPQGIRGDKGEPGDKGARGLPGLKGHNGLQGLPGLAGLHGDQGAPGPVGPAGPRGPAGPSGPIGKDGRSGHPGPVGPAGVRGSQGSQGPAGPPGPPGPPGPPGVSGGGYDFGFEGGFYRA

B1: SEQ ID NO: 123 (peptide)
peptide: GQWTCSGDEYTWHCNY
modifications: disulfide 5-14 (inferred)
On to B1, for which the “% bound” value was 59% in [1] and 72% in assay [2].

B2: SEQ ID NO: 116 (peptide)
peptide: DWTCSGDHLTWHCNYG
modifications: disulfide 4-13 (inferred)
Regarding B2, the results for the “% bound” value in assay [3] and in assay [4] were 58% and 35%, respectively.

B3: SEQ ID NO: 117 (peptide)
peptide: DWTCSGDHLTWKCNYG
modifications: disulfide 4-13 (inferred)
For B3, the “% bound” value in assay [3] is 38%; in assay [4] it was 24%.

B4: SEQ ID NO: 114 (peptide)
peptide: WTCSGDEYTWHCNYE
modifications: disulfide 3-12 (inferred)
With B4, the “% bound” value amounted to 19% in assay [3] and 14% in assay [4].

B5: SEQ ID NO: 157 (peptide)
peptide: YHACY[dQ]AGCWIW
modifications: disulfide 4-9 (inferred)
As for B5, the figures for the “% bound” value in [5] and in assay [6] were 37% and 35%, respectively.

B6: SEQ ID NO: 122 (peptide)
peptide: GQWTCSGDEYTWHCNYE
modifications: disulfide 5-14 (inferred)
Take B6: the “% bound” value in assay [1] and in assay [2] was 71% in each case.

B7: SEQ ID NO: 106 (peptide)
peptide: YHACYQAGCWIY
modifications: disulfide 4-9 (inferred)
B7: the “% bound” value is 9% in [7] and 24% in assay [8].

B8: SEQ ID NO: 109 (peptide)
peptide: YSACYQAGCWIW
modifications: disulfide 4-9 (inferred)
Take B8: the “% bound” value in assay [7] is 21%; in assay [8], 37%.

B9: SEQ ID NO: 115 (peptide)
peptide: DWTCSGDPYTWHCNYE
modifications: disulfide 4-13 (inferred)
For B9, the “% bound” value in assay [3] amounted to 39%; in assay [4] it was 23%.

B10: SEQ ID NO: 119 (peptide)
peptide: DWTCSGDEFTWHCNYE
modifications: disulfide 4-13 (inferred)
Consider B10, for which the “% bound” value in assay [3] and in assay [4] was 55% each time.

B11: SEQ ID NO: 156 (peptide)
peptide: YHAC[dY]QAGCWIW
modifications: disulfide 4-9 (inferred)
For B11, the “% bound” value in assay [5] stood at 38%; in [6], 48%.

B12: SEQ ID NO: 161 (peptide)
peptide: YHACYQAGCW[dI]W
modifications: disulfide 4-9 (inferred)
On to B12, for which the “% bound” value is 8% in assay [5] and 10% in assay [6].

B13: SEQ ID NO: 118 (peptide)
peptide: DWTCSGNHLTWYCNYG
modifications: disulfide 4-13 (inferred)
For the molecule B13, the “% bound” value in assay [3] came to 68%; in assay [4], 67%.

B14: SEQ ID NO: 158 (peptide)
peptide: YHACYQ[dA]GCWIW
modifications: disulfide 4-9 (inferred)
B14: the “% bound” value in assay [5] turned out to be 56%; in assay [6], 66%.

B15: SEQ ID NO: 160 (peptide)
peptide: YHACYQAGC[dW]IW
modifications: disulfide 4-9 (inferred)
B15: the entries for the “% bound” value in assay [5] and in assay [6] were 20% and 12%, respectively.

B16: Comp ID 939 (peptide)
peptide: Cbz-GQWHCT[Dap](Gd^T″)RFPHHYCLYG
modifications: disulfide 5-14; not fully specified (C-terminus); printed as cbz-GQWHCT-Dpr(Gd^T)-RFPHHYCLYG
As for B16, the “% bound” value is 4% in [9] and 5% in assay [10].

B17: Comp ID 869 (peptide)
peptide: GQWHCTTSFPHHYCLYG
modifications: not fully specified; Gd^T-GQWHCTTSFPHHYCLYG
On to B17, for which the figures for the “% bound” value in [9] and in assay [10] were 46% and 37%, respectively.

B18: Comp ID 900 (peptide)
peptide: {Gd^T}-GQWHCT[dR]RFPHHYCLYG
modifications: disulfide 5-14 (inferred); not fully specified (C-terminus); printed as Gd^T-GQWHCTrRFPHHYCLYG; reading uncertain
Regarding B18, the “% bound” value in assay [9] was found to be 4%.

B19: Comp ID 898 (peptide)
peptide: {Gd^T}-GQWHCT[dS]RFPHHYCLYG
modifications: disulfide 5-14 (inferred); not fully specified (C-terminus); printed as Gd^T-GQWHCTsRFPHHYCLYG; reading uncertain
Turning to B19, the “% bound” value in [9] turned out to be 5%.

B20: Comp ID 897 (peptide)
peptide: {Gd^T}-GQWHCT[dN]RFPHHYCLYG
modifications: disulfide 5-14 (inferred); not fully specified (C-terminus); printed as Gd^T-GQWHCTnRFPHHYCLYG; reading uncertain
As for B20, the “% bound” value in assay [9] came to 4%.

B21: SEQ ID NO: 110 (peptide)
peptide: YSACYQAGCYIY
modifications: disulfide 4-9 (inferred)
Turning to B21, the “% bound” value in [7] came to 10%; in [8], 2%.

B22: Comp ID 951 (peptide)
peptide: {Gd^T″}-GK([Gly-Gd^T″])WHCTTYFPHH[Bip]CLYG
modifications: disulfide 5-14; not fully specified (C-terminus); printed as Gd^T-G-K(G.Gd^T)-WHCTTYFPHH-Bip-CLYG
In the case of B22, the “% bound” value in assay [9] is 45%.

These data come from patent US20070293656A1, “COLLAGEN BINDING PEPTIDES” (Epix Pharmaceuticals, Inc., priority 2005, published 2007).
